Targets include FVII-PRPSRKRR (UniProt P08709); FVII-RKR (UniProt P08709); FVII-RKRRKR (UniProt P08709).
For series [1], the target named is wild type FVII (human Factor VII) (UniProt P08709).

The values below come from patent publication US20040102388.

Regarding Factor Xa, the “FXa activation: conversion of single-chain zymogen to two-chain material (reducing gel)” value is “the single-chain zymogen protein in all but FVII-INS was nearly completely converted to two-chain material” with FVII-PRPSRKRR; “modified FVII, like wild type FVII, is autoactivated by (A) soluble Tissue factor (sTF) and (B) Factor Xa” in series [1]; “the single-chain zymogen protein in all but FVII-INS was nearly completely converted to two-chain material” in the series with FVII-RKR; “the single-chain zymogen protein in all but FVII-INS was nearly completely converted to two-chain material” with FVII-RKRRKR. Besides, in the series with FVII-PRPSRKRR, the “FXa concentration giving complete cleavage of zymogen” value was “Addition of 1 µM FXa (i.e 50 fold higher than for the other FVIIa proteins) resulted in complete cleavage of zymogen FVII-INS”.

B1: FVII-PRPSRKRR (protein)
chain: ANAFLEELRPGSLERECKEEQCSFEEAREIFKDAERTKLFWISYSDGDQCASSPCQNGGSCKDQLQSYICFCLPAFEGRNCETHKDDQLICVNENGGCEQYCSDHTGTKRSCRCHEGYSLLADGVSCTPTVEYPCGKIPILEKRNASKPQGRPRPSRKRRIVGGKVCPKGECPWQVLLLVNGAQLCGGTLINTIWVVSAAHCFDKIKNWRNLIAVLGEHDLSEHDGDEQSRRVAQVIIPSTYVPGTTNHDIALLRLHQPVVLTDHVVPLCLPERTFSERTLAFVRFSLVSGWGQLLDRGATALELMVLNVPRLMTQDCLQQSRKVGDSPNITEYMFCAGYSDGSKDSCKGDSGGPHATHYRGTWYLTGIVSWGQGCATVGHFGVYTRVSQYIEWLQKLMRSEPRPGVLLRAPFP
For B1, the “autoactivation: cleavage of single-chain zymogen to two-chain FVIIa (reducing gel)” value (“autoactivation: cleavage … (reducing gel)” for short) with soluble Tissue factor was “all modified FVIIa contain single-chain material that can be cleaved”.

B2: FVII-RKR (protein)
chain: ANAFLEELRPGSLERECKEEQCSFEEAREIFKDAERTKLFWISYSDGDQCASSPCQNGGSCKDQLQSYICFCLPAFEGRNCETHKDDQLICVNENGGCEQYCSDHTGTKRSCRCHEGYSLLADGVSCTPTVEYPCGKIPILEKRNASKPQGRRKRIVGGKVCPKGECPWQVLLLVNGAQLCGGTLINTIWVVSAAHCFDKIKNWRNLIAVLGEHDLSEHDGDEQSRRVAQVIIPSTYVPGTTNHDIALLRLHQPVVLTDHVVPLCLPERTFSERTLAFVRFSLVSGWGQLLDRGATALELMVLNVPRLMTQDCLQQSRKVGDSPNITEYMFCAGYSDGSKDSCKGDSGGPHATHYRGTWYLTGIVSWGQGCATVGHFGVYTRVSQYIEWLQKLMRSEPRPGVLLRAPFP
Consider B2, for which the “autoactivation: cleavage … (reducing gel)” value with soluble Tissue factor was “all modified FVIIa contain single-chain material that can be cleaved”.

B3: wild type FVII (human Factor VII) (protein)
chain: ANAFLEELRPGSLERECKEEQCSFEEAREIFKDAERTKLFWISYSDGDQCASSPCQNGGSCKDQLQSYICFCLPAFEGRNCETHKDDQLICVNENGGCEQYCSDHTGTKRSCRCHEGYSLLADGVSCTPTVEYPCGKIPILEKRNASKPQGRIVGGKVCPKGECPWQVLLLVNGAQLCGGTLINTIWVVSAAHCFDKIKNWRNLIAVLGEHDLSEHDGDEQSRRVAQVIIPSTYVPGTTNHDIALLRLHQPVVLTDHVVPLCLPERTFSERTLAFVRFSLVSGWGQLLDRGATALELMVLNVPRLMTQDCLQQSRKVGDSPNITEYMFCAGYSDGSKDSCKGDSGGPHATHYRGTWYLTGIVSWGQGCATVGHFGVYTRVSQYIEWLQKLMRSEPRPGVLLRAPFP
For B3, in the series with soluble Tissue factor, the “autoactivation: cleavage … (reducing gel)” value was “single-chain protein (zymogen) in the FVII or the FVIIa preparations was cleaved to yield a two-chain material (FVIIa)”.

B4: FVII-RKRRKR (protein)
chain: ANAFLEELRPGSLERECKEEQCSFEEAREIFKDAERTKLFWISYSDGDQCASSPCQNGGSCKDQLQSYICFCLPAFEGRNCETHKDDQLICVNENGGCEQYCSDHTGTKRSCRCHEGYSLLADGVSCTPTVEYPCGKIPILEKRNASKPQGRRKRRKRRKRIVGGKVCPKGECPWQVLLLVNGAQLCGGTLINTIWVVSAAHCFDKIKNWRNLIAVLGEHDLSEHDGDEQSRRVAQVIIPSTYVPGTTNHDIALLRLHQPVVLTDHVVPLCLPERTFSERTLAFVRFSLVSGWGQLLDRGATALELMVLNVPRLMTQDCLQQSRKVGDSPNITEYMFCAGYSDGSKDSCKGDSGGPHATHYRGTWYLTGIVSWGQGCATVGHFGVYTRVSQYIEWLQKLMRSEPRPGVLLRAPFP
With B4, the “autoactivation: cleavage … (reducing gel)” value with soluble Tissue factor was “all modified FVIIa contain single-chain material that can be cleaved”.
